The test concerns the target Fluorogenic peptide Dabcyl-…-Edans, EV71 polyprotein autoprocessing site between 3B and 3C (human enterovirus 71).

For the substance EV71 3C protease mutant H133G (enzyme), the Km of cleavage of the fluorogenic 3B-3C peptide (protease assay, 4 μM protease) was found to be 25.9 µM.

These data come from paper PMC7094522.
